According to paper PMC10146638 (Viruses, 2023):
No end group written: not given here.

How the values were obtained:
[1] = biological target: knob domain of the FAdV-4 Fiber2 protein (Fowl aviadenovirus 4, UniProt A0A1B1SKZ0); test: Surface plasmon resonance assay (Biacore X100, CM5 chip); type: binding, fowl adenovirus serotype 4 (FAdV-4)
[2] = test system: LMH cells; details: 0-200 μM, 24, 48 and 72 h incubation, vs untreated group
[3] = biological target: knob domain of the FAdV-4 Fiber2 protein (amino acids 279–479) (fowl adenovirus serotype 4 (FAdV-4)); test: AUC
[4] = biological target: knob domain of the FAdV-4 Fiber2 protein (amino acids 279–479) (fowl adenovirus serotype 4 (FAdV-4)); test: crystal structure
[5] = biological target: knob domain of the FAdV-4 Fiber2 protein (amino acids 279–479) (fowl adenovirus serotype 4 (FAdV-4)); test: SDS-PAGE without boiling
[6] = biological target: knob domain of the FAdV-4 Fiber2 protein (amino acids 279–479) (fowl adenovirus serotype 4 (FAdV-4)); test: SEC; Superdex200 Increase 10/300 GL; protein eluted at 14.78 mL
[7] = biological target: knob domain of the FAdV-4 Fiber2 protein (amino acids 279–479) (fowl adenovirus serotype 4 (FAdV-4)); test: SPR

Row | Molecule | Kd [1] | Kd [7] | other results
1 | MQKHCG [Peptide P27, MQKHCG] | 0.572 µM |  | 
2 | MQKHEW [Peptide P25, MQKHEW] | 1.37 µM |  | 
3 | MQKKFI [Peptide P30, MQKKFI] | 0.907 µM |  | 
4 | QWKARV [Peptide P14, QWKARV] | 24 µM |  | 
5 | QWKIEK [Peptide P5, QWKIEK] | 1.2 µM |  | 
6 | QWKIHR [Peptide P6, QWKIHR] | 2.78 µM |  | 
7 | QWKKHI [Peptide P1, QWKKHI] | 6.16 µM |  | 
8 | QWKNCK [Peptide P10, QWKNCK] | 1.02 µM |  | 
9 | WWHEKE [Peptide P15, WWHEKE] |  |  | cytotoxic effect (CCK-8) [2]: no cytotoxic effect
10 | knob domain of the FAdV-4 Fiber2 protein (amino acids 279–479) (domain or fragment) |  |  | stoichiometry N [3]: 3; stoichiometry N [4]: 3; stoichiometry N [5]: 3; stoichiometry N [6]: 3
11 | MQKHEW [peptide P25] |  | 1.37 µM | 
12 | WWHEKE [peptide number 15 (P15; WWHEKE)] |  | 1.44 µM | 
13 | QWKNCK [peptide P10] |  | 1.02 µM | 
14 | QWKKHI [peptide P1] |  | 6.16 µM | 
15 | QWKIEK [peptide P5] |  | 1.2 µM | 
16 | MQKKFI [peptide P30] |  | 0.907 µM | 
17 | QWKARV [peptide P14] |  | 24 µM | 
18 | MQKHCG [peptide P27] |  | 0.573 µM | 
19 | QWKIHR [peptide P6] |  | 2.78 µM | 
